In this experiment the target is transferrin receptor on HeLa S3 cells (human) (UniProt P02786). The experiment can be described thus: radioiodinated transferrin on HeLa S3 cells, no competitor.
transferrin receptor on HeLa S3 cells (human), sequence (P02786 whole entry): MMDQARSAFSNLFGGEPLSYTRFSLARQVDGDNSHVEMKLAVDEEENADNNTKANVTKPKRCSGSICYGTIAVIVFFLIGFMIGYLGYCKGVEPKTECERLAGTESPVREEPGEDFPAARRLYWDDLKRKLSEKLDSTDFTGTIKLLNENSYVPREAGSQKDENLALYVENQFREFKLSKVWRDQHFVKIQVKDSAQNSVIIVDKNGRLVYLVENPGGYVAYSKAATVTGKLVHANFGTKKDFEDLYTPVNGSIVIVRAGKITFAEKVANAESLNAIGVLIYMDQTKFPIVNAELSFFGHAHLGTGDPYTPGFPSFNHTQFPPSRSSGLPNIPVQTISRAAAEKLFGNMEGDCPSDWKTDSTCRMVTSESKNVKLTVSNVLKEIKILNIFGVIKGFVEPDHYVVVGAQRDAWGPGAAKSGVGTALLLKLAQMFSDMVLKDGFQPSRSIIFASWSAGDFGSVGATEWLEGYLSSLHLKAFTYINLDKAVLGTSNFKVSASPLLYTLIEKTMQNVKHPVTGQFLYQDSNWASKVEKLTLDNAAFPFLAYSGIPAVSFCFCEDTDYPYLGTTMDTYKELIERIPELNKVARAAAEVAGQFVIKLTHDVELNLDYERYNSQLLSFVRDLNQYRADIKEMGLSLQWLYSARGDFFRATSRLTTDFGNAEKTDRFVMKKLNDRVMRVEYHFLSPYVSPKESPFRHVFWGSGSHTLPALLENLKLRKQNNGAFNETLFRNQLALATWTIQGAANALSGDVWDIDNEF

Take radiolabeled diferric transferrin: the TF/cell in the absence of competitor was found to be 328000 TF/cell and the cpm bound in the absence of competitor amounted to 7480 cpm.

The values above are taken from patent US20050054043A1.
